Patent publication EP4817631A2 (AbbVie Deutschland GmbH & Co. KG, dated 2026)
Changes are numbered by the printed parent chain.

T1: R &D hRGMc-His (human, UniProt Q6ZVN8 36-400)
T1 construct: Bought (R&D) His-tagged human RGMc; also called human RGMc; not shown: His tag
T1 sequence: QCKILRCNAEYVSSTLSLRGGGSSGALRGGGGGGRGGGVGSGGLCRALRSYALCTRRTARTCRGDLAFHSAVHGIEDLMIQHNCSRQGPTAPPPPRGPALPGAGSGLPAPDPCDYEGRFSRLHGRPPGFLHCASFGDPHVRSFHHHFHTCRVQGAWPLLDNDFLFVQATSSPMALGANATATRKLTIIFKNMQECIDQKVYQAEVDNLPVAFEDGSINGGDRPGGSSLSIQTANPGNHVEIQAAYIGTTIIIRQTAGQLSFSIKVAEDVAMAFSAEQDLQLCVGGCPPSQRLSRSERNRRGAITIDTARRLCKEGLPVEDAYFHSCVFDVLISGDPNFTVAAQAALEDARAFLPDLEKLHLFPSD

T2: hRGMc expressed in 293HEK cells (human, UniProt Q6ZVN8 36-400)
T2 sequence: T1 sequence

T3: hRGMa-His (human, UniProt Q96B86 48-422, limits assumed)
T3 construct: not shown: His tag
T3 sequence: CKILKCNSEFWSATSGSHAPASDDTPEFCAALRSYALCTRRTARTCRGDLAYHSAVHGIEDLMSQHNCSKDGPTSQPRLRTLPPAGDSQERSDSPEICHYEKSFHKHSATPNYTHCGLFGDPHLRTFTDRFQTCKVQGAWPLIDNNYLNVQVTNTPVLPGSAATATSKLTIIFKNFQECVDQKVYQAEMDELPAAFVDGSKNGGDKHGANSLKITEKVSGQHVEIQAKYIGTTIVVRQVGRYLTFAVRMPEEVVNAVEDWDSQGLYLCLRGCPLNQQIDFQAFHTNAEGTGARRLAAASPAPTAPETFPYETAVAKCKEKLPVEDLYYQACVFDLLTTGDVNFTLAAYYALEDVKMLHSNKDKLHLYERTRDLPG

B1: h5F9.AM4 (antibody, V domains shown)
VH: EVQLVESGGGLVQPGGSLRLSCAASGFTFSNYGMNWIRQAPGKGLEWIGMIYYDSSEKHYADSVKGRFTISRDNSKNTLYLQMNSLRAEDTAVYYCAKGTTPDYWGQGTMVTVSS
VL: DVVLTQSPLSLPVTLGQPASISCRSSQSLESSDGDTFLEWFQQRPGQSPRLLIYDVSTRFSGVPDRFSGSGSGTDFTLKISRVEAEDVGVYYCFQVTHDPVTFGQGTKLEIK
notes: also called RGMA-h5F9AM.4; RGMA-h5F9Vh7a/pJP29 1 hIgG1/K mut
B2: h5F9.AM8 (antibody, V domains shown)
VH: B1 VH
VL: B1 VL with S31E, D35Y, E39H, D55E, V96A, V101L
notes: also called RGMA-h5F9AM.8; RGMA-h5F9pJP297/pJP 298 hIgG1/K mut
B3: h5F9.AM9 (antibody, V domains shown)
VH: B1 VH with L11V, G16R, I37V, I48V, G49A, K98R
VL: B1 VL with E30A, S31D, E39H, D55A, T58H, V96A
notes: also called RGMA-h5F9AM.9; RGMA-h5F9pJP297/pJP 299 hIgG1/K mut
B4: h5F9.AM11 (antibody, V domains shown)
VH: B1 VH with I37V, I48V, G49S
VL: B1 VL with S31D, D35G, T58S, V96A, V101L, T102S
notes: also called RGMA-h5F9AM; 11; RGMA-h5F9pJP302/pJP 303 hIgG1/K mut
B5: humanized antibody 5F9.23 (antibody, V domains shown)
VH: B1 VH
VL: DVVLTQSPLSLPVTLGQPASISCRSSQSLEYSDGYTFLEWFQQRPGQSPRLLIYEVSNRFSGVPDRFSGSGSGTDFTLKISRVEAEDVGVYYCFQATHDPLTFGQGTKLEIKR
notes: Humanized parental antibody; also called h5F9.23; H5F9.23*

biological target: Rat RGMa-His (rat) (UniProt D4A188); assay: affinity KD as listed in Table 4 (equals BIAcore value of Table 5)

| Kd [nM] | Binder |
| --- | --- |
| < 0.00094 | B1 |
| < 0.0015 | B2 |
| 0.31 | B3 |
| 0.074 | B4 |

biological target: Rat RGMa-His (rat) (UniProt D4A188); assay: BIAcore; Ab captured on CM5 chip via anti-hIgG Fc Ab, antigen injected; 1:1 Langmuir fit

| Kd [nM] | koff [s⁻¹] | kon [M⁻¹ s⁻¹] | Binder |
| --- | --- | --- | --- |
| < 0.00094 | < 1e-06 | 1.1e+06 | B1 |
| 2.1 | 0.0017 | 830000 | B5 |
| < 0.0015 | < 1e-06 | 660000 | B2 |
| 0.31 | 0.00021 | 680000 | B3 |
| 0.074 | 5.2e-05 | 700000 | B4 |

biological target: T1, R &D hRGMc-His; assay: affinity KD as listed in Table 4; method not given

| Kd [nM] | Binder |
| --- | --- |
| 0.12 | B1 |
| 0.08 | B2 |
| 0.69 | B3 |
| 0.25 | B4 |

biological target: T2, hRGMc expressed in 293HEK cells; assay: cell-based or functional assay

| IC50, RGMc-mediated BMP reporter (BRE-luc) assay [nM] | Binder |
| --- | --- |
| 17 | B5 |

biological target: T3, hRGMa-His; assay: affinity KD as listed in Table 4 (equals BIAcore value of Table 5)

| Kd [nM] | Binder |
| --- | --- |
| 0.015 | B1 |
| 0.031 | B2 |
| 0.47 | B3 |
| 0.11 | B4 |

biological target: T3, hRGMa-His; assay: BIAcore; Ab captured on CM5 chip via anti-hIgG Fc Ab, antigen injected; 1:1 Langmuir fit

| Kd [nM] | koff [s⁻¹] | kon [M⁻¹ s⁻¹] | Binder |
| --- | --- | --- | --- |
| 0.015 | 2.2e-05 | 1.4e+06 | B1 |
| 0.031 | 2.7e-05 | 870000 | B2 |
| 0.47 | 0.0004 | 860000 | B3 |
| 0.11 | 9.9e-05 | 930000 | B4 |

biological target: T1, R &D hRGMc-His; assay: as above

| Kd [nM] | koff [s⁻¹] | kon [M⁻¹ s⁻¹] | Binder |
| --- | --- | --- | --- |
| 0.13 | 0.00104 | 7.85e+06 | B1 |
| 29 | – | 830000 | B5 |
| 0.105 | 0.00039 | 3.95e+06 | B2 |
| 0.71 | 0.0107 | 1.55e+07 | B3 |
| 0.285 | 0.0014 | 5.05e+06 | B4 |
